Assay results reported in US8394929B2, “Nogo receptor-mediated blockade of axonal growth” (Yale University, priority 2000, dated 2013).
Values belong to the molecule of their own block, whether it stands above or below them.

Legend:
[1] = tested on: Sema3A-induced growth cone collapse; assay: Sema3A-induced growth cone collapse in chick DRG cultures; format: cell-based
From the text: The Nogo-66 receptor protein is necessary for Nogo-66 action and not simply a binding site with a function unrelated to inhibition of axonal outgrowth. A first prediction is that phosphoinositol specific-Phospholipase C (PI-PLC) treatment to remove glycophosphatidylinositol (GPI)-linked proteins from the neuronal surface will render neurons insensitive to Nogo-66. This prediction holds true for chick E13 dorsal root ganglion neurons; PI-PLC treatment abolishes both AP-Nogo binding and GST-Nogo-66-induced growth cone collapse (FIG. 10a-c). As a control, Sema3A responses in the parallel cultures are not altered by PI-PLC treatment.
For further testing, a synthetic peptide containing amino acid residues #1055-1094 of hNgR, acetylated at the […] was used [hereinafter “Peptide 140”]. […] Antagonist of Nogo-66 inhibitory activity may act by competing for, and thereby blocking NgR binding sites. To determine the antagonistic activity of Peptide 140, the above synthetic form of the peptide was added to E12 chick DRG explant cultures approximately 10 min before application of various concentrations of GST-NogoA (residues #1055-1120), TPA or Sema3A. 30 min later, cultures were fixed and growth cone collapse was assessed following staining with rhodamine-phalloidin.

[2] = molecular target: T1, NgRΔCT (Mus musculus, UniProt Q99PI8); assay: AP-hNogo-A (1055-1120) binding to COS-7 cells transfected with NgRΔCT
T1 construct: encodes residues 26 to 305 and 443 to473 of mNgR; vector secretion signal (pSecTag2) (N); 6xHis (C); expressed in transfected cells; host or cells: COS-7
T1 sequence (Q99PI8 with tags, fused parts or gaps): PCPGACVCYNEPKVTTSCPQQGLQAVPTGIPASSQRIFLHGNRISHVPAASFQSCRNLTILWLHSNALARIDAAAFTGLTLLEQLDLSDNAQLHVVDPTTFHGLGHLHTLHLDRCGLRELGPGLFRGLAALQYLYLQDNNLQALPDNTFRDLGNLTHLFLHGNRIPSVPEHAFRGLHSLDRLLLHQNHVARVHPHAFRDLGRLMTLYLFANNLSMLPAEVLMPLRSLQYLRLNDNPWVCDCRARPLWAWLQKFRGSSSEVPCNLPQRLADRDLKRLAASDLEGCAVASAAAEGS
From the text: The NgRΔCT contruct encodes residues 26 to 305 and 443 to473 of mNgR, thereby including the LRR and GPI regions of mNgR. Primers MycNgR ([…]) and 2NgRt313 ([…]) were used to amplify a sequence from the wtNgR-pSecTag2Hygro plasmid. Primers TM/GPI5 (5′-[…]-3′) and NgR3X (above) were used to amplify a sequence from the wtNgR-pSecTag2Hygro plasmid. The amplified sequences were ligated together at the NotI site and then ligated into the BamHI/XhoI sites of pSecTag2.
To determine whether mNgR or mNgR deletion mutants bound to hNogo-A (1055-1120), wtNgR or mNgR deletion mutants were transfected into COS-7 cells. Forty-eight hours after the transfection, the transfected COS-7 cells were washed with hanks balanced salt solution containing 20 mM sodium HEPES, pH 7.05, and 1 mg/ml bovine serum albumin (BSA) [hereinafter “HBH”]. Cells were then incubated for 2 hours at 23° C. with a conditioned medium enriched with purified AP-hNogo-A (1055-1120) diluted in HBH. AP-fusion protein was detected as previously described for AP-Sema3A (Takahashi et al., Nature Neurosci. 1:487-493, 1998).

[3] = tested on: chick E7 retinal ganglion cells; assay: Growth cone collapse in uninfected chick E7 retinal ganglion cells; format: cell-based; details: neurons lacking the Nogo-66 receptor
From the text: Both dorsal root ganglion and retinal neurons from E7 chick embryos were examined. The Nogo responses in the dorsal root ganglion neurons from this developmental stage are weak but slight responses can be detected in some cultures (data not shown).
For some receptor systems, such soluble receptor ligand complexes can block signaling by creating an ineffective interaction. For example, the soluble ectodomain of Trk serves to block neurotrophin signaling and has been extensively used for this purpose (Shelton et al., (1995) J. Neurosci. 15, 477-491). Alternatively, the Nogo-66/NgR-ecto soluble complex may bind to and stimulate the presumed second transmembrane NgR subunit. There is precedence for this type of effect from studies of GDNF family receptors (Cacalano et al., (1998) Neuron 21, 53-62).

[4] = molecular target: T2, NgR carboxy terminal deletion mutant (NgRΔCT) (Mus musculus, UniProt Q99PI8); assay: Growth cone collapse in E7 retinal ganglion cells infected with NgRΔCT; format: cell-based
T2 construct: expressed in transfected cells; host or cells: chick E7 retinal ganglion cell explants infected with recombinant HSV
T2 sequence (Q99PI8 with tags, fused parts or gaps): T1 sequence (Q99PI8 with tags, fused parts or gaps)
Experimental: Because the mouse NgRCT domain was determined to be dispensable for hNogo-A (1055-1120) binding, the ability of NgRΔCT to mediate Nogo-dependent inhibition was examined. HSVNgR constructs transfected into HEK293T cells mediated the expression of mNgR proteins of the predicted molecular weight, as determined by SDS-PAGE and anti-Myc and anti-NgR immunoblotting (FIG. 19A). Day E7 chick retinal ganglion cells (RGCs) were grown for 12 hr, then further incubated for 24 hr with HSVNgR preparations. Explants were fixed with 4% paraformaldehyde with 0.1 M PO4 and 20% sucrose and stained with phalloidin or with anti-myc antibodies. HSVNgR protein expression was detected in axons of infected (RGC) cultures (FIG. 19B).
Growth cone collapse in response to GST-hNogo-A (1055-1120) was investigated in infected RGC cultures. Retinal explants infected with recombinant viral preparations of PlexinA1 (PlexA1), wild-type NgR (wtNgR), NgRL1 chimeric receptor in which the GPI domain has been replaced by the transmembrane region and cytoplasmic tail from the mouse adhesion protein L1 (NgRL1), or NgR carboxy terminal deletion mutant (NgRΔCT) for 12 hr. Following infection, the cells were treated for 30 min with 0, 50, 250, or 500 nM GST-hNogo-A (1055-1120) (GrandPre et al., Nature 403: 439-444, 2000), fixed with 4% paraformaldehyde with 0.1 M PO4 and 20% sucrose, and stained with phalloidin. […]

Molecule: Peptide 140: synthetic peptide of amino acids #1055-1094 of the human NogoA protein, acetylated and amidated at the termini (Ac-RIYKGVIQAIQKSDEGHPFRAYLESEVAISEELVQKYSNS-NH2; UniProt Q9NQC3 1055-1094, looked up, fragment)
- effect on Sema3A-induced growth cone collapse (in words) [1]: no significant reduction in collapse

B1: AP-Nogo: fusion protein of His6 tag, placental alkaline phosphatase (AP) and the 66 amino acid active domain of Nogo (protein)
chain: HHHHHHIIPVEEENPDFWNREAAEALGAAKKLQPAQTAAKNLIIFLGDGMGVSTVTAARILKGQKKDKLGPEIPLAMDRFPYVALSKTYNVDKHVPDSGATATAYLCGVKGNFQTIGLSAAARFNQCNTTRGNEVISVMNRAKKAGKSVGVVTTTRVQHASPAGTYAHTVNRNWYSDADVPASARQEGCQDIATQLISNMDIDVILGGGRKYMFRMGTPDPEYPDDYSQGGTRLDGKNLVQEWLAKRQGARYVWNRTELMQASLDPSVTHLMGLFEPGDMKYEIHRDSTLDPSLMEMTEAALRLLSRNPRGFFLFVEGGRIDHGHHESRAYRALTETIMFDDAIERAGQLTSEEDTLSLVTADHSHVFSFGGYPLRGSSIFGLAPGKARDRKAYTVLLYGNGPGYVLKDGARPDVTESESGSPEYRQQSAVPLDEETHAGEDVAVFARGPQAHLVHGVQEQTFIAHVMAFAACLEPYTACDLAPPAGTTDAAHPGRIYKGVIQAIQKSDEGHPFRAYLESEVAISEELVQKYSNSALGHVNCTIKELRRLFLVDDLVDSLK
- binding (in words) [2]: bound

- growth cone collapse response (in words) [4]: insensitive
B2: GST-Nogo: GST fusion protein of the 66 amino acid lumenal-extracellular fragment of Nogo-A, expressed in E. coli (protein)
chain: RIYKGVIQAIQKSDEGHPFRAYLESEVAISEELVQKYSNSALGHVNCTIKELRRLFLVDDLVDSLK
modifications: also: GST fusion protein
notes: GST fusion protein of the 66 amino acid lumenal-extracellular fragment of Nogo-A, expressed in E. coli
- growth cone collapse (in words) [3]: uniformly insensitive
